Paper PMC4740771, “Nucleotide-dependent assembly of the peroxisomal receptor export complex” (Scientific Reports, 2016)

Assays:
[1] = target: Pex15p(1-315)His (GST removed by thrombin) (S. cerevisiae) (UniProt Q08215); experiment: SEC; 700 kDa fractions of the Pex1/6p/Pex15p complexes pooled, kept 72 h on ice (4 °C), then size exclusion again; anti-His immunoblot, signal intensities
[2] = target: GST-Pex15p(1-315)His (S. cerevisiae) (UniProt Q08215); experiment: pull-down; GST-Pex15p(1-315)His incubated with purified proteins, loaded on GSH-agarose, eluted with glutathione; 5 mM ATP; Coomassie and immunoblot, signal intensities of load and eluate
[3] = target: Pex15p(1-315)His (GST removed by thrombin) (S. cerevisiae) (UniProt Q08215); experiment: SEC; Pex1/6p/Pex15p complex isolated on GSH-agarose, released by thrombin (GST left on the column), Superose 6 (small-scale and preparative) in presence of ATP; anti-His immunoblot or Coomassie, signal intensities by ImageJ
[4] = target: Pex15p(1-315)His (GST removed by thrombin) (S. cerevisiae) (UniProt Q08215); experiment: SEC; as a8 but 2.5 mM ATPγS added during thrombin incubation of the wild-type complex
[5] = target: the molecule itself; experiment: SEC; second gel filtration of the purified heterohexameric complexes after incubation at 37 °C
[6] = target: T1, Pex15p(1-315)His (GST removed by thrombin) (S. cerevisiae, UniProt Q08215 1-315); experiment: SEC; Pex1/6p/Pex15p complex isolated on GSH-agarose, released by thrombin (GST left on the column), Superose 6 (small-scale and preparative) in presence of ATP; anti-His immunoblot or Coomassie, signal intensities by ImageJ; settings: both partners purified
T1 construct: Pex15p of S. cerevisiae, cytosolic part, residues 1 to 315; Same construct as m10 after thrombin cleavage; detected by anti-His antibodies; Printed mass 36 kDa; alone it eluted at about 100 kDa; also called Pex15pHis; source: E. coli BL21 (DE3), purified (Glutathione Agarose 4B), released from GSH-agarose by thrombin; not shown: GST, N-terminal, cleaved; His6, C-terminal, kept
T1 sequence (looked up): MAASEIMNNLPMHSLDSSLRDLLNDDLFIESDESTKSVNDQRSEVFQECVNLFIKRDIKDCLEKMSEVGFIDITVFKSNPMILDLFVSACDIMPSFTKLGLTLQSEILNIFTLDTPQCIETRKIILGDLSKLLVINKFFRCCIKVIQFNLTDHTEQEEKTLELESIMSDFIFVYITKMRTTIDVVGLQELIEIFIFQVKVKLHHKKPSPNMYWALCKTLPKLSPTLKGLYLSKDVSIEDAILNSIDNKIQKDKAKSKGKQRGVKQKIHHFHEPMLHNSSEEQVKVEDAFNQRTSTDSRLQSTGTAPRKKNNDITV

[7] = target: T2, HisPex1p released from HisPex1pGST by thrombin (S. cerevisiae, UniProt P24004 1-1043); experiment: as above; settings: both partners purified
T2 construct: Pex1p, type II AAA-ATPase peroxin of yeast; The GST tag held the complex on GSH-agarose during purification and stayed on the column after thrombin cleavage; source: E. coli Tuner (DE3), co-purified with HisPex6p (NiNTA-agarose, GSH-agarose, thrombin release); not shown: His6, N-terminal, kept; GST, C-terminal, cleaved
T2 sequence (looked up): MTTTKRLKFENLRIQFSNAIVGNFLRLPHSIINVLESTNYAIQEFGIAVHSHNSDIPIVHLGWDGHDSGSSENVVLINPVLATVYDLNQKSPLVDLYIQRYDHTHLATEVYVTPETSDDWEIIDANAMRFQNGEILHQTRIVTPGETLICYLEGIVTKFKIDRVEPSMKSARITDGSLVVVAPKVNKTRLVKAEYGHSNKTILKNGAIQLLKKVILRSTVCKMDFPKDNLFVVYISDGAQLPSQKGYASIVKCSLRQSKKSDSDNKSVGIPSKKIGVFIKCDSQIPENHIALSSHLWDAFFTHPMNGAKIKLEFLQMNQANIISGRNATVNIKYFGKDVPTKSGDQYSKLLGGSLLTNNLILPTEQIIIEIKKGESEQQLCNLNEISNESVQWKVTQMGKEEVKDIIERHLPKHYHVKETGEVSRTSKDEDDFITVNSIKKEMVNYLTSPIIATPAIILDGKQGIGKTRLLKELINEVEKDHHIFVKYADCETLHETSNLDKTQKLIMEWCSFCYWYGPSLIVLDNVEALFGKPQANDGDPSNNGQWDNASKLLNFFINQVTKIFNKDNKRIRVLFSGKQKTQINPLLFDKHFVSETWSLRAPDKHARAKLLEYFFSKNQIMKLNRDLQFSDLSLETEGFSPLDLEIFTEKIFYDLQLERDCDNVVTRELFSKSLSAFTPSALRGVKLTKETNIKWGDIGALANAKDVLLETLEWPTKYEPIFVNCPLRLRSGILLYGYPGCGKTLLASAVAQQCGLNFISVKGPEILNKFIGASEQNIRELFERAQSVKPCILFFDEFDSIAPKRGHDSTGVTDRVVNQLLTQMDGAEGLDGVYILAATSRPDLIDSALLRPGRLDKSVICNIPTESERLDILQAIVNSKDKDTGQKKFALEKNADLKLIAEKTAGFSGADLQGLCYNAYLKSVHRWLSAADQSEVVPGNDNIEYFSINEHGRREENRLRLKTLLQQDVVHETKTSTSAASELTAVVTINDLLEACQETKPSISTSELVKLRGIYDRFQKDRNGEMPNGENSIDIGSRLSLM

## Pex1/6p-complex (recombinant heterohexameric AAA-complex), P24004 1-1043; P33760 1-1030
[1]
  percent of Pex15p still bound after 72 h: < 10%
[2]
  fold binding against single Pex6p: 3 fold
[3]
  stoichiometry N (Pex15p per Pex1p of the complex): 0.9
[3]; scale: Pex15p per heterohexameric Pex1/6p complex
  stoichiometry N: 3
[4]
  percent of Pex15p still bound after 72 h: 20%

## Pex1/6pWB complex (wild-type Pex1p with Pex6p E832Q), P24004 1-1043; P33760 1-1030
[1]
  percent of Pex15p still bound after 72 h: 40%
[3]
  stoichiometry N (Pex15p per Pex1p of the complex): 0.9

B1: HisPex1p(D797N) released from its GST fusion (natural protein, S. cerevisiae, UniProt P24004 1-1043, looked up)
chain: MTTTKRLKFENLRIQFSNAIVGNFLRLPHSIINVLESTNYAIQEFGIAVHSHNSDIPIVHLGWDGHDSGSSENVVLINPVLATVYDLNQKSPLVDLYIQRYDHTHLATEVYVTPETSDDWEIIDANAMRFQNGEILHQTRIVTPGETLICYLEGIVTKFKIDRVEPSMKSARITDGSLVVVAPKVNKTRLVKAEYGHSNKTILKNGAIQLLKKVILRSTVCKMDFPKDNLFVVYISDGAQLPSQKGYASIVKCSLRQSKKSDSDNKSVGIPSKKIGVFIKCDSQIPENHIALSSHLWDAFFTHPMNGAKIKLEFLQMNQANIISGRNATVNIKYFGKDVPTKSGDQYSKLLGGSLLTNNLILPTEQIIIEIKKGESEQQLCNLNEISNESVQWKVTQMGKEEVKDIIERHLPKHYHVKETGEVSRTSKDEDDFITVNSIKKEMVNYLTSPIIATPAIILDGKQGIGKTRLLKELINEVEKDHHIFVKYADCETLHETSNLDKTQKLIMEWCSFCYWYGPSLIVLDNVEALFGKPQANDGDPSNNGQWDNASKLLNFFINQVTKIFNKDNKRIRVLFSGKQKTQINPLLFDKHFVSETWSLRAPDKHARAKLLEYFFSKNQIMKLNRDLQFSDLSLETEGFSPLDLEIFTEKIFYDLQLERDCDNVVTRELFSKSLSAFTPSALRGVKLTKETNIKWGDIGALANAKDVLLETLEWPTKYEPIFVNCPLRLRSGILLYGYPGCGKTLLASAVAQQCGLNFISVKGPEILNKFIGASEQNIRELFERAQSVKPCILFFNEFDSIAPKRGHDSTGVTDRVVNQLLTQMDGAEGLDGVYILAATSRPDLIDSALLRPGRLDKSVICNIPTESERLDILQAIVNSKDKDTGQKKFALEKNADLKLIAEKTAGFSGADLQGLCYNAYLKSVHRWLSAADQSEVVPGNDNIEYFSINEHGRREENRLRLKTLLQQDVVHETKTSTSAASELTAVVTINDLLEACQETKPSISTSELVKLRGIYDRFQKDRNGEMPNGENSIDIGSRLSLM
notes: Pex1p of yeast with a mutation of the aspartate of the Walker B motif of the D2 domain; also called Pex1WB^D797N; Pex1pWB^D797N; not shown: His6, N-terminal, kept; GST, C-terminal, cleaved
[5]
  stoichiometry N: 3

B2: HisPex6p(E832Q) (natural protein, S. cerevisiae, UniProt P33760 1-1030, looked up)
chain: MKASLTFSLSGIYAPCSISRDIYLEYGDKKAECLYGTIRLPQYGPGCTPGKIVHCVLDDSLPFCSIVVPSKLFGFMPTQPTMDFCYFEPILDNVVPVLDSVTFLINEQLYSKLMDLPQEMQQIQFLHYKYNINSMETVVHSRDILTSGLCQILNCSPFPQGLVDFTETQLILVNDTEQKLSALKYANEDEEYALPKIGTNSALSIDLESLPCTISRDLLRPAPHINDDNSIYAFTDAETLLRLDVTSGSFITVSNMGCVRLVKLFVLLLPNGFKKRTIYAPPKIIASFPDCSVVTISKSNIGHTDIPIANQVFISRVGGWLQSQKCFQNIILTTLKKFFSESKRILCQNDLIPIAFDSSMADLNIAEENDESDDEDELGQYYKNDSLVWFFVTSAELDCFSKDNSHFIIDPNRTKLITTNITNRRPLPLSRSNLQRYYGFAETFYYDLHIFPYVRQLVNILETSFNCSQRGITLNASVLLHSTTNNVGKATMVRFASKYLGIHLLEIDCLSLTSNSRQLDSTSKIIGYIRAKCENVLPYASPAVIFLAHLDSILLDVNANQDPEAIKLQKSINFEMSKLLDDFTFKFPGTTFVGSVNNIDNVPSSFRSHMRFEILVPVPSEAQRLRIFQWYLSSHELNRDVQQKVPVSYMDNISFSSLSSYSAGLTPLDIKSIVETARMTATARFYQESKKCGWLPQSILITQEDLSKATSKARNEFSVSIGAPQIPNVTWDDIGGIDFVKGEILDTIDMPLKHPELFTSGMKKRSGILFYGPPGTGKTLMAKAIATNFSLNFFSVKGPELLNMYIGESEANVRRVFQKAREAKPCVIFFDQIDSVAPKRGNQGDSGGVMDRIVSQLLAELDGMSTDADGVFVIGATNRPDLLDEALLRPGRFDKLLYLGIPDTDTKQLNILEALTRKFVLDNDVKLIELAKLCPFNYTGADFYALCSDAMLNAMSRIARMVEKKVSQHNELTGENISTRRWFDKIATKEDTKVVVKMEDFLKAQEQLTPSVSRAELNHYEAVRANFEGA
notes: Pex6p of yeast with the Walker B mutation of the D2 domain; also called Pex6pWB; PEX6WB^E832Q; source: E. coli Tuner (DE3), co-purified with HisPex1pGST; not shown: His6, N-terminal, kept
[6]
  stoichiometry N: 1 Pex15p per Pex6p
[7]
  stoichiometry N: 0.9 Pex6p per Pex1p
